In the Immune Epitope Database (IEDB):

What was measured:
HLA-A*02:03 = assay: IEDB peptide-MHC binding, purified MHC/direct/fluorescence; filed as Kd, often an IC50 or EC50 that approximates it; ≥ and ≤ were set here for values at or beyond the usual limits of such assays
HLA-A*02:11 = assay: as above
HLA-A*02:12 = assay: as above
HLA-A*02:16 = assay: as above
HLA-A*02:19 = assay: as above
HLA-A*03:01 = assay: as above
HLA-A*24:03 = assay: as above
HLA-A*29:02 = assay: as above
HLA-A*68:02 = assay: as above
HLA-B*07:02 = assay: as above; conditions: source organism: Oran virus
HLA-A*02:01 = assay: IEDB peptide-MHC binding, purified MHC/competitive/fluorescence; filed as Kd, often an IC50 or EC50 that approximates it; ≥ and ≤ were set here for values at or beyond the usual limits of such assays; conditions: source organism: Orthohantavirus andesense
HLA-A*26:01 = assay: as above; conditions: source organism: Orthohantavirus andesense
HLA-A*69:01 = assay: as above; conditions: source organism: Orthohantavirus andesense
HLA-B*15:01 = assay: as above; conditions: source organism: Orthohantavirus andesense
HLA-B*15:17 = assay: as above; conditions: source organism: Orthohantavirus andesense
HLA-B*18:01 = assay: as above; conditions: source organism: Orthohantavirus andesense
HLA-B*27:03 = assay: as above; conditions: source organism: Orthohantavirus andesense
HLA-B*35:01 = assay: as above; conditions: source organism: Orthohantavirus andesense
HLA-B*39:01 = assay: as above; conditions: source organism: Orthohantavirus andesense
HLA-B*46:01 = assay: as above; conditions: source organism: Orthohantavirus andesense
HLA-B*51:01 = assay: as above; conditions: source organism: Orthohantavirus andesense
HLA-B*57:01 = assay: as above; conditions: source organism: Orthohantavirus andesense
HLA-B*40:01 = assay: IEDB peptide-MHC binding, purified MHC/direct/fluorescence; filed as Kd, often an IC50 or EC50 that approximates it; ≥ and ≤ were set here for values at or beyond the usual limits of such assays; conditions: source organism: Orthohantavirus andesense
HLA-B*15:42 = assay: IEDB peptide-MHC binding, purified MHC/competitive/fluorescence; filed as Kd, often an IC50 or EC50 that approximates it; ≥ and ≤ were set here for values at or beyond the usual limits of such assays; conditions: source organism: Orthohantavirus andesense
HLA-B*45:06 = assay: as above; conditions: source organism: Orthohantavirus andesense
HLA-B*83:01 = assay: as above; conditions: source organism: Orthohantavirus andesense
[1] = source organism: Orthohantavirus andesense

KPKALSEAF
Kd (HLA-A*02:03; source organism: Oran virus): ≥ 20 µM
Kd (HLA-A*02:11; source organism: Oran virus): ≥ 20 µM
Kd (HLA-A*02:12; source organism: Oran virus): ≥ 20 µM
Kd (HLA-A*02:16; source organism: Oran virus): ≥ 20 µM
Kd (HLA-A*02:19; source organism: Oran virus): ≥ 20 µM
Kd (HLA-A*03:01; source organism: Oran virus): ≥ 20 µM
Kd (HLA-A*24:03; source organism: Oran virus): ≥ 20 µM
Kd (HLA-A*29:02; source organism: Oran virus): ≥ 20 µM
Kd (HLA-A*68:02; source organism: Oran virus): ≥ 20 µM
Kd (HLA-B*07:02): 76.5 nM
Kd (HLA-A*02:01): ≥ 20 µM
Kd (HLA-A*26:01): ≥ 20 µM
Kd (HLA-A*69:01): ≥ 20 µM
Kd (HLA-B*15:01): ≥ 20 µM
Kd (HLA-B*15:17): ≥ 20 µM
Kd (HLA-B*18:01): ≥ 20 µM
Kd (HLA-B*27:03): ≥ 20 µM
Kd (HLA-B*35:01): 22.3 nM
Kd (HLA-B*39:01): ≥ 20 µM
Kd (HLA-B*46:01): ≥ 20 µM
Kd (HLA-B*51:01): ≥ 20 µM
Kd (HLA-B*57:01): ≥ 20 µM

LEEDIQHFL
Kd (HLA-A*02:03; [1]): ≥ 20 µM
Kd (HLA-A*02:11; [1]): ≥ 20 µM
Kd (HLA-A*02:12; [1]): ≥ 20 µM
Kd (HLA-A*02:16; [1]): ≥ 20 µM
Kd (HLA-A*02:19; [1]): ≥ 20 µM
Kd (HLA-A*03:01; [1]): ≥ 20 µM
Kd (HLA-A*24:03; [1]): ≥ 20 µM
Kd (HLA-A*29:02; [1]): ≥ 20 µM
Kd (HLA-A*68:02; [1]): ≥ 20 µM
Kd (HLA-B*40:01): 0.2 nM
Kd (HLA-A*02:01): ≥ 20 µM
Kd (HLA-A*26:01): ≥ 20 µM
Kd (HLA-A*69:01): ≥ 20 µM
Kd (HLA-B*15:01): ≥ 20 µM
Kd (HLA-B*15:17): ≥ 20 µM
Kd (HLA-B*15:42): ≥ 5 µM
Kd (HLA-B*18:01): ≥ 20 µM
Kd (HLA-B*27:03): ≥ 20 µM
Kd (HLA-B*39:01): ≥ 20 µM
Kd (HLA-B*45:06): ≥ 5 µM
Kd (HLA-B*46:01): ≥ 20 µM
Kd (HLA-B*51:01): ≥ 20 µM
Kd (HLA-B*57:01): ≥ 20 µM
Kd (HLA-B*83:01): ≥ 5 µM
